Target: maltose binding protein (MBP)-tagged ubiquitin
Test: ELISA

GST-tagged SUVR1 WIYLD domain (domain or fragment)
binding in ELISA relative to S4WIYLD (set to 1) (relative to S4WIYLD = 1): 0.65

GST-tagged SUVR2 WIYLD domain (domain or fragment)
binding in ELISA relative to S4WIYLD (set to 1) (relative to S4WIYLD = 1): 1.23

GST-tagged SUVR4 WIYLD domain A32E (domain or fragment)
reduction of binding relative to wild-type S4WIYLD: 37%
